Reference: publication PMC2823633 (The Journal of neuroscience : the official journal of the …, 2009)

T1: GST fusion of the Mint1 PDZ-2 domain (740-825) (UniProt Q02410 740-825, Cys 742 replaced with Ser)
T1 sequence (looked up): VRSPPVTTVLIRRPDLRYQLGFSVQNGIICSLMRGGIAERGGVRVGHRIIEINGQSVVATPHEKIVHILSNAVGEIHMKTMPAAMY


Molecular target: T1, GST fusion of the Mint1 PDZ-2 domain …
Experiment: ELISA

Binder	binding result
ASYCKQRNIVWL [synthetic artificial peptide ASYCKQRNIVWL (positive control)]	binds
GHLSESSQVRWL [synthetic artificial peptide GHLSESSQVRWL (positive control)]	binds
GVPARTQVEVWV [synthetic artificial peptide GVPARTQVEVWV]	binds
GVPARTQVAVAV [doubly substituted peptide GVPARTQVAVAV]	binds
TAKCAARFPTWL [synthetic artificial peptide TAKCAARFPTWL]	binds
